The values that follow are results of earlier work, collected in paper PMC2662774.

In series [1] the target is CXCR4 1-38 (sY21 P38) 1-38 (Homo sapiens) (UniProt P61073). As to the kind of experiment: NMR.
In series [2] the target is CXCR4 sY21 P38 peptide 1-38 (Homo sapiens) (UniProt P61073). The series is described as follows: NMR titration.

Sequence of SDF-1α (P48061 24-88): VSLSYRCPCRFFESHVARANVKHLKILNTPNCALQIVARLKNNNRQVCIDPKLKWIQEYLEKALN

Regarding SDF-1α (from UniProt P48061), the Kd in series [1] and in series [2] was 1300 nM throughout.
